According to patent publication US9644037B2, “Antibodies that specifically bind ataxia telangiectasia-mutated and RAD3-related kinase phosphorylated at position 1989 and their use” (THE UNITED STATES OF AMERICA, AS REPRESENTED BY THE …, priority 2013, dated 2017):

Legend:
[1] = biological target: T1, pT1989ATR foci in cell nuclei (Homo sapiens, UniProt Q13535); test: Immunofluorescence assay (IFA) on FFPE cells, antibody performance; format: binding
T1 construct: lysates from cells expressing ATR (HT-29, LoVo and DLD-1); endogenous in cells; host or cells: DLD-1 parental, DLD-1 Seckel (Horizon), HT-29, LoVo; with or without gemcitabine
Protocol: Subclones were screened by several assays. Screening was performed by enzyme-linked immunosorbant assay (ELISA) and Western blot for subclones of clones #7, 27 and 35 for subcloning. Subclones of clone #7 were then tested in an immunofluroescent (IFA) assay. Clone #7 was then tested in IFA assay. Formalin fixed paraffin embedded (FFPE) blocks were prepared from DLD-1 cells and DLD-1 Seckel cells treated with and without gemcitabine treatment (100 nM for 4 h). Slides were stained using neat hybridomas supernatants and imaged at 20×.
Formalin fixed paraffin embedded (FFPE) pellets were generated using cells expressing WT ATR (HT29, DLD-1 Parental) or mutated ATR (DLD-1 Seckel (Horizon)), with and without gemcitabine (SIGMA) treatment to induce ATR phosphorylation at pT1989 (Mol. Pharmacol. 2005, 68, 1636-1644). Cells were harvested by trypsinization, transferred into a sterile 50 ml conical centrifuge tubes with media containing 10% serum and pelleted at 1000×g for 5 minutes. Medium was replaced with fresh serum containing medium and centrifuged again at 1000×g, 5 minutes. All but 1 ml (approximately) of medium was removed and the pellet was re-suspended by flicking the tube. Suspended cells were transferred using a 2 ml pipette into a clean 1.5 ml conical Eppendorf tube. Cells were pelleted for 30 seconds at 8,000 rpm in an Eppendorf micro centrifuge. […]

[2] = tested on: non-phospho peptide-BSA conjugates; test: Direct ELISA against non-phospho peptide-BSA conjugates; format: binding, human
Protocol: (§1) The titer results from the pair of rabbits for each peptide antigen were determined in a colorimetric ELISA against BSA-conjugated peptides. Plates were coated with 50ng/well peptide-BSA conjugate in bicarbonate buffer pH 9.6 and incubated at 4° C. overnight, then and blocked with 1% BSA in TBS. Diluted (1:250-1:256,000) rabbit anti-sera (50 ul/well) were added and incubated at room temperature. Plates were washed with Tris-buffered saline with 0.05% Tween (TBST). Anti-rabbit secondary conjugated to alkaline phosphatase was used for detection with p-nitrophenyl phosphate (PNPP) substrate. Plates were read at 405 nm with a plate reader.

pT1989 ATR = biological target: T2, pT1989 ATR (Homo sapiens, UniProt Q13535); test: Western blot of cell lysates probed with anti-ATR-pT1989 antibodies; format: binding
T2 construct: lysates from cells expressing ATR (HT-29, LoVo and DLD-1); endogenous in cells; host or cells: DLD-1 parental, DLD-1 Seckel (Horizon), HT-29, LoVo; with or without gemcitabine
Protocol: Cell growth was monitored 2-3 weeks after fusion. Hybridoma supernatants were screened by standard colorimetric ELISA against BSA-conjugated peptides as described in section C. The screening process consisted of a Primary screen on 40 plates (using bleed 2 of E5571 at 1:100 dilution as a Positive control) clones (44) with O.D. greater than 0.5 were considered putatively positive and were further expanded to 24-well plate. Confirmatory screen was performed and 6 clones were confirmed positive against phospho-specific peptides (Table 4). Additional screening was performed by ELISA using the same assay as for bleed screening (FIG. 5). Western blotting was done on selected clones #7, 27 and 35 for subcloning (FIG. 6). […]
Details for lysate preparation and Western blotting are given in Example I, section E. The antibody detected a single band at about 250 kDa consistent with the predicted molecular weight (MW) for ATR. The antibody also detected an increase in phospho-ATR (pT1989) upon gemcitabine (SIGMA) treatment which is known to increase ATR activity (Mol. Pharmacol. (2005), 68, 1636-1644). […]
Cells were treated for 4 hours with either vehicle (DMSO, 0.01%), 150 nM Gemcitabine (Sigma), 1 uM ATR inhibitor VE-821 or combination of drugs. The antibody detected a single band at about 250 kDa consistent with the predicted MW for ATR. […]

[3] = tested on: ATR pT1989 phospho-peptides conjugated to BSA; test: ELISA against phospho-peptide-BSA conjugates (bleed, hybridoma and clone screening); format: binding, human
Protocol: as §1
Independent screening of blood was conducted. Flat bottom, black, high binding 360 μL plates with clear bottom (VWR catalog #29444-037) were coated with 100 ng/well peptide-BSA conjugate in bicarbonate buffer pH 9.6 (Sigma, catalog # C3041-100CAP) and incubated at 4° C. overnight, then and blocked with ODYSSEY® blocking buffer (LiCor, catalog #927-40010). Diluted (1:250-1:1,000,000) rabbit anti-sera (100 ul/well) were added and incubated at 24 C. Plates were washed with phosphate-buffered saline with 0.05% tween-20 (PBS-T). […] Plates were read at 700 nm with a Licor ODYSSEY® scanner. Images were quantified using Licor ODYSSEY® application software v3.0 (FIGS. 3 and 4).
Cell growth was monitored 2-3 weeks after fusion. […]

T2 sequence (Q13535 whole entry): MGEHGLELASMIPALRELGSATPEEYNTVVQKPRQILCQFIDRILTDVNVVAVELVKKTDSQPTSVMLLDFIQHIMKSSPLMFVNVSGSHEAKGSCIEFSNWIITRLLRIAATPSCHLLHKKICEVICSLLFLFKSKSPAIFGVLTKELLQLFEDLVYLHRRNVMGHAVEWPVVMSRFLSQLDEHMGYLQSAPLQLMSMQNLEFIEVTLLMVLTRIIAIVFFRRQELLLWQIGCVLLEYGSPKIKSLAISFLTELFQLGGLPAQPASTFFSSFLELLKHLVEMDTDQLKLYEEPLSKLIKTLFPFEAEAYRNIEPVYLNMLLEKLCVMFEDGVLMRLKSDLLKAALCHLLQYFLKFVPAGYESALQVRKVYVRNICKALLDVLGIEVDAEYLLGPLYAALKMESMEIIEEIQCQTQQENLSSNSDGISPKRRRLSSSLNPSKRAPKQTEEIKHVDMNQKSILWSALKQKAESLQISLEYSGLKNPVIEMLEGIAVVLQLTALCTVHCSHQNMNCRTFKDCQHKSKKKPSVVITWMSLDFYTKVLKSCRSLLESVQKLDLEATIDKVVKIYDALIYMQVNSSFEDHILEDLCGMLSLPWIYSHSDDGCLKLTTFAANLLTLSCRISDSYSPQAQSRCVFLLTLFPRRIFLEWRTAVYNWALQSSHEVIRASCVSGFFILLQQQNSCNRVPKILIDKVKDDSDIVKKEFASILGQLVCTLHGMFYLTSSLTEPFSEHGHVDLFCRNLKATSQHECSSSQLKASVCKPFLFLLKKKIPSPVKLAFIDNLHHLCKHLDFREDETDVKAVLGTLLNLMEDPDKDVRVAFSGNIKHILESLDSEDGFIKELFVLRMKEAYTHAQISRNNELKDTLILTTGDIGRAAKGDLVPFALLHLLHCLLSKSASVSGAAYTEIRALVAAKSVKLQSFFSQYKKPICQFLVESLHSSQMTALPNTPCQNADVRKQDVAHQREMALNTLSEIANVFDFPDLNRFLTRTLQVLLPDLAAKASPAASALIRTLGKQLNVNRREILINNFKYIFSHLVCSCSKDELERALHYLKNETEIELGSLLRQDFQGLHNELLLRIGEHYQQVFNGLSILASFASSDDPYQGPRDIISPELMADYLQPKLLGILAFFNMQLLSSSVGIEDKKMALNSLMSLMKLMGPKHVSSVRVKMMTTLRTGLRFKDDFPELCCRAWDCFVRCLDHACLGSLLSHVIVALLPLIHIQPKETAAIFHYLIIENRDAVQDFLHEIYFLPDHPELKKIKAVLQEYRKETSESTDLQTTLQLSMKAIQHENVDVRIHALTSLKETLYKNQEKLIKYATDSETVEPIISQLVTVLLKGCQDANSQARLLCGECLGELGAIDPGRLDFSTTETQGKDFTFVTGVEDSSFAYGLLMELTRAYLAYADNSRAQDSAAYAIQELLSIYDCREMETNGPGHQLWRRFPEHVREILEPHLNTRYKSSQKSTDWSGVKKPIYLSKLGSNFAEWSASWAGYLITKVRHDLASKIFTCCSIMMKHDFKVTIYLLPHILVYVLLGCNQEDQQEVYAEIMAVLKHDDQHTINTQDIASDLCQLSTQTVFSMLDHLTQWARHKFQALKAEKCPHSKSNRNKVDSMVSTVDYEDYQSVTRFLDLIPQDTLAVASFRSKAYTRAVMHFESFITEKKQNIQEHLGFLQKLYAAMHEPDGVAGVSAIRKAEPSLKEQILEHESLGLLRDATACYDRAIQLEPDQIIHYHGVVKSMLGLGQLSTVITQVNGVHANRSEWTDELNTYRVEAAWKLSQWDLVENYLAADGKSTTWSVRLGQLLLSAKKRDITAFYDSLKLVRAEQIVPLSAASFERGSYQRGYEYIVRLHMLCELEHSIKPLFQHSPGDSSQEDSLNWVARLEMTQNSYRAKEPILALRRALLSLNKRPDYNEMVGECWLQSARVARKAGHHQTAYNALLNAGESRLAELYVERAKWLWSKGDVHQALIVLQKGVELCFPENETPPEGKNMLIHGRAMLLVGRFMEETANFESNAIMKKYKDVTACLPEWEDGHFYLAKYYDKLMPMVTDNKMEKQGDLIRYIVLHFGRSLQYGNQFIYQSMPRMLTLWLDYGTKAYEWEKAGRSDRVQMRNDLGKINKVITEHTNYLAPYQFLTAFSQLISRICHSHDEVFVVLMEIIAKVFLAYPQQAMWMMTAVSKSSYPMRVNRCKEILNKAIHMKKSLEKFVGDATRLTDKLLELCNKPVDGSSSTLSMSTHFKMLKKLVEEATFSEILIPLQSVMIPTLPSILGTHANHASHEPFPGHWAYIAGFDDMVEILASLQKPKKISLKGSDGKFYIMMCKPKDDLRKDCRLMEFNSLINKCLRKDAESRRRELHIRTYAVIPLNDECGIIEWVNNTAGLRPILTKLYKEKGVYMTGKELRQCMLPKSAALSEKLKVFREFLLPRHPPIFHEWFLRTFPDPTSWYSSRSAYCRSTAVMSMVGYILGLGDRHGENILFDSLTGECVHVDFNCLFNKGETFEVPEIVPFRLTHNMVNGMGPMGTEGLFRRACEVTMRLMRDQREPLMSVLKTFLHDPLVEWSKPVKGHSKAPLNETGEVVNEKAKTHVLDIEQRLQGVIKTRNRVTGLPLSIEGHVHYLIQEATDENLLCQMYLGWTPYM
T1 sequence (Q13535 whole entry): as above

B1: Clone 7A7: subclone of hybridoma 7; rabbit monoclonal antibody that specifically binds pT1989 ATR (antibody)
heavy: QSVEESGGRLVAPGTPLTLTCTVSGIDLMYNAMNWVRQAPGKGLEFIGMIGSGGNTVYASWAKGRFTISKTSTTVGLKMTSLTQEDTATYFCAREGSGGSMDFWGPGTLVTVSSGQPKAPSVFPLAPCCGDTPSSTVTLGCLVKGYLPEPVTVTWNSGTLTNGVRTFPSVRQSSGLYSLSSVVSVTSSSQPVTCNVAHPATNTKVDKTVAPSTCSKPTCPPPELLGGPSVFIFPPKPKDTLMISRTPEVTCVVVDVSQDDPEVQFTWYINNEQVRTARPPLREQQFNSTIRVVSTLPIAHQDWLRGKEFKCKVHNKALPAPIEKTISKARGQPLEPKVYTMGPPREELSSRSVSLTCMINGFYPSDISVEWEKNGKAEDNYKTTPAVLDSDGSYFLYSKLSVPTSEWQRGDVFTCSVMHEALHNHYTQKSISRSPGK
light: ALVMTQSPSSVSAAVGGTVTITCQASQSLYNNNYLAWFQQKPGQRPKLLIYKASTLASGVPSRFKGSGSGTQFTLTISDLECEDAATYYCLGEYKDNVDDGNAFGGGTEVVVEGDPVAPTVLIFPPAADQVATGTVTIVCVANKYFPDVTVTWEVDGTTQTTGIENSKTPQNSADCTYNLSSTLTLTSTQYNSHKEYTCKVTQGTTSVVQSFNRGDC
- suitability for pharmacodynamic IFA assay applications [1]: successfully used
- cross-reactivity with non-phospho peptide-BSA conjugates [2]: did not cross-react
- specificity and sensitivity in Western blot (pT1989 ATR): specific for pT1989 ATR
- detection of pATR in Western blot (pT1989 ATR; antibody dilution 1:50, DLD1 lysates): detected pATR specifically
- specificity, titers for BSA conjugated phosphorylated and non-phosphorylated peptides ([3]; FIG. 5C): specific for the phosphorylated polypeptides
- binding to phosphopeptide-BSA conjugates ([3]; peptide conjugated at C term or N-term to BSA): bound the phosphopeptide
